± gives the standard error. For part of these data: Fewer inactive variants are shown than the library holds.
B1: glmS ribozyme (parent)
chain: AUAAAAGCGCCAGAACUACAGAAAUGUAGUUGACGAGGAGGAGGUUUAUCGAAUUUUCGGCGGAUGCCUCCAAA

What was measured:
Settings in all cases: with glucosamine-6-phosphate
glucosamine-6-phosphate [1] = variants of: B1; assay: kcat; higher = faster cleavage; RNA array
How it was run: (§1)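 Tiles of sequenced MiSeq chips were imaged over ~14 h at 37 °C. On them, barcoded ribozyme variants had been transcribed in situ by E. coli RNA polymerase and were tracked via a hybridised Cy3 probe while glucosamine-6-phosphate (40 μM to 10 mM) in HEPES/KCl/Mg(OAc)2 buffer flowed in. Per-tile medians, normalised to baseline and to non-cleaving reference variants, were fit to one- or two-exponential decays for kobs, and weighted Michaelis–Menten fits gave kcat and KM.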

glucosamine-6-phosphate [2] = variants of: B1; assay: KM; higher = weaker cofactor use; RNA array
How it was run: as §1

glucosamine-6-phosphate [3] = variants of: B1; assay: self-cleavage kobs at 640 uM GlcN6P; higher = faster cleavage; RNA array
How it was run: as §1

glucosamine-6-phosphate [4] = variants of: B1; assay: self-cleavage kobs at 2500 uM GlcN6P; higher = faster cleavage; RNA array
How it was run: as §1

glucosamine-6-phosphate [5] = variants of: B1; assay: self-cleavage kobs at 10000 uM GlcN6P; higher = faster cleavage; RNA array
How it was run: as §1

glucosamine-6-phosphate [6] = variants of: B1; assay: self-cleavage kobs at 40 uM GlcN6P; higher = faster cleavage; RNA array
How it was run: as §1

glucosamine-6-phosphate [7] = variants of: B1; assay: self-cleavage kobs at 160 uM GlcN6P; higher = faster cleavage; RNA array
How it was run: as §1

Variant	kcat (glucosamine-6-phosphate [1])	KM (glucosamine-6-phosphate [2])	self-cleavage kobs at 640 uM GlcN6P (glucosamine-6-phosphate [3])	self-cleavage kobs at 2500 uM GlcN6P (glucosamine-6-phosphate [4])	self-cleavage kobs at 10000 uM GlcN6P (glucosamine-6-phosphate [5])	self-cleavage kobs at 40 uM GlcN6P (glucosamine-6-phosphate [6])	self-cleavage kobs at 160 uM GlcN6P (glucosamine-6-phosphate [7])
AUAAAAGCGCCAGAACUACAGAAAUGUAGCUGACGAGGAGGAGGUUUAUCGAAUGUUCGGCGGAUGCCUCCAAA	0.00036 ± 1.6e-05 s⁻¹	1480 ± 160 µM	0.000105 ± 2.8e-05 s⁻¹	0.000236 ± 4.5e-05 s⁻¹	0.000307 ± 5.8e-05 s⁻¹		
AUAAAUGCGCCAGAACUACAGAAAUGUAGUUGACGAGGAGGAGGUUUAUCGAAGUUUCGGCGGAUGCCUCCAAA	0.000293 ± 3e-05 s⁻¹	3960 ± 740 µM	3.62e-05 ± 8.4e-06 s⁻¹	0.000122 ± 1.5e-05 s⁻¹	0.000204 ± 2.5e-05 s⁻¹		
AUAAAAGCGCCAGAACUACAGAAAUGUAGUUGACGAGGAGGAGGUUUAUCGAAGUUUCGGCGGAUGCCUCGAAA	0.00104 ± 0.00019 s⁻¹	511 ± 150 µM	0.000398 ± 9e-05 s⁻¹	0.000909 ± 0.0002 s⁻¹	0.0011 ± 0.00012 s⁻¹	8.73e-05 ± 8.8e-06 s⁻¹	0.000192 ± 4.6e-05 s⁻¹
AUAAAAGCGCCAGAACUACAGAAAUGUAGUUGACGAGGAGGUGGUUUAUCGAUUUUUCGGCGGAUGCCUCCAAA	0.000105 ± 1.1e-05 s⁻¹			8.5e-05 ± 1.5e-05 s⁻¹	9.14e-05 ± 8.2e-06 s⁻¹		
AUAAAAGCGCCAGAACUACAGAAAUGUAGCUUACGAGGAGGAGGUUUAUCGAAUUUUCGGCGGAUGCCUCCAAA	0.000492 ± 0.00011 s⁻¹	3230 ± 1300 µM	9.97e-05 ± 1.7e-05 s⁻¹	0.000183 ± 2.9e-05 s⁻¹	0.000403 ± 5.7e-05 s⁻¹		
AUAAAAGCGCCAGAACUACAGAAAUGUAGUUGACGAGGAGGAGGUUUAUCGAAUUUAUGGCGGAUGCCUCCAAA	6.53e-05 ± 2.8e-06 s⁻¹				2.39e-05 ± 8.3e-06 s⁻¹		
AUAAAAGCGACAGAACUACAGAAAUGUAGUUGACGAGGAGGAGGUUUAUCGAAUUUUCGGCGGAUGUCUCGAAA	2.93e-05 ± 1.4e-05 s⁻¹						
AUAAAAGCGCCAGAACUACAGAAAUGUAGUUGACGAGGAGGAGGUUUAUCGAAUCUUCGGCGGAUGCCUACAAA	1.26e-05 ± 1.6e-06 s⁻¹					< 1e-05 s⁻¹	
AUAAAAGCGCCAUAACUACAGAAAUGUAGUUGACGAGGAGGAGGUUUAUCGAAUUGUCGGCGGAUGCCUCCAAA	0.000921 ± 0.00016 s⁻¹	2720 ± 820 µM	0.000172 ± 2.5e-05 s⁻¹	0.000372 ± 6.6e-05 s⁻¹	0.000774 ± 9.3e-05 s⁻¹		7.12e-05 ± 2e-05 s⁻¹

Source: the supplement of paper PMC7125110
